Laboratory results taken from paper PMC10150958, “Combination of anti-C1qA08 and anti-mCRP a.a.35-47 antibodies is associated with renal prognosis of patients with lupus nephritis” (Frontiers in Immunology, 2023).

B1: monomeric CRP (mCRP) (natural protein, UniProt P02741 19-224, looked up)
chain: QTDMSRKAFVFPKESDTSYVSLKAPLTKPLKAFTVCLHFYTELSSTRGYSIFSYATKRQDNEILIFWSKDIGYSFTVGGSEILFEVPEVTVAPVHICTSWESASGIVEFWVDGKPRVRKSLKKGYTVGAEASIILGQEQDSFGGNFEGSQSLVGDIGNVNMWDFVLSPDEINTIYLGGPFSPNVLNWRALKYEVQGEVFTKPQLWP
notes: C-reactive protein, monomeric (dissociated, denatured) form; Same protein in all assays: purified mCRP in solution or coated on plates; for SPR with the C1q peptides pentameric CRP was coupled to the chip and turned into mCRP by urea/EDTA, because mCRP precipitated in acetate buffer; also called monomeric C-reactive protein; urea-denatured mCRP; source: urea-denatured mCRP on the microplate; on …
B2: peptide 35-47 of mCRP (peptide)
peptide: VCLHFYTELSSTR
notes: peptide 35-47 derived from mCRP (C-reactive protein); Biotinylated and nonbiotinylated peptides were synthesized; also called a.a.35-47; mCRP a.a.35-47; source: synthetic peptide (GenScript, >95% purity)
B3: peptide A08 (peptide)
peptide: GRPGRRGRPGLKG
notes: peptide from the collagen like region (CLR) of the C1q-A chain; Biotinylated and nonbiotinylated peptides were synthesized; also called C1qA08; source: synthetic peptide (GenScript, >95% purity)
B4: peptide 199-206 of mCRP (peptide)
peptide: FTKPQLWP
notes: peptide 199-206 derived from mCRP (C-reactive protein); Biotinylated and nonbiotinylated peptides were synthesized; also called a.a.199-206; source: synthetic peptide (GenScript, >95% purity)
B5: peptide B78 (peptide)
peptide: PGKVGPKGPMGPK
notes: peptide from the collagen like region (CLR) of the C1q-B chain; Biotinylated and nonbiotinylated peptides were synthesized; source: synthetic peptide (GenScript, >95% purity)

Assays:
[1] = target: T1, human complement component C1q (human, UniProt P02745 23-245; P02746 28-253; P02747 29-245); test: SPR; Biacore T200; C1q coupled to a CM5 chip; mCRP or peptides a.a.35-47, a.a.199-206 injected at 30 μl/min in PBS with 0.05% P-20; steady-state curve for a.a.35-47; settings: both partners purified
T1 construct: complement C1q, A chain, human; complement C1q, B chain, human; complement C1q, C chain, human; also called human C1q; copies: 6 + 6 + 6

monomeric CRP (mCRP) = target: B1; test: SPR; Biacore T200; CRP immobilised on a CM5 chip and denatured to mCRP by 200 s of 8 M urea and 5 mM EDTA; peptides A08, B78, A08-C injected at 30 μl/min in PBS with 0.05% P-20; settings: both partners purified

T1 sequence (P02745 23-245, chain 1 of 3): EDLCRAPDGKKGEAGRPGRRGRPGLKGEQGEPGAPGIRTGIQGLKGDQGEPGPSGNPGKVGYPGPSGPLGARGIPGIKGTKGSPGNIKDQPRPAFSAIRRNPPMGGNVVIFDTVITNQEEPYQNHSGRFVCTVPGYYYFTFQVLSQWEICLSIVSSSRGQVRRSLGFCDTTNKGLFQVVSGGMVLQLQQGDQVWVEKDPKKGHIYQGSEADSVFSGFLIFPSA
T1 sequence (P02746 28-253, chain 2 of 3): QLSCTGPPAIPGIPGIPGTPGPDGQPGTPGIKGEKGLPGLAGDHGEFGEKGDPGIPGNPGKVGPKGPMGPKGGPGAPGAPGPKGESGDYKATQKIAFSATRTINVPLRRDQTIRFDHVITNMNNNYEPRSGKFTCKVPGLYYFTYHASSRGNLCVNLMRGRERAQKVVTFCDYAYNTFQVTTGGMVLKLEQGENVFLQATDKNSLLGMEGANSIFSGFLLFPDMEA
T1 sequence (P02747 29-245, chain 3 of 3): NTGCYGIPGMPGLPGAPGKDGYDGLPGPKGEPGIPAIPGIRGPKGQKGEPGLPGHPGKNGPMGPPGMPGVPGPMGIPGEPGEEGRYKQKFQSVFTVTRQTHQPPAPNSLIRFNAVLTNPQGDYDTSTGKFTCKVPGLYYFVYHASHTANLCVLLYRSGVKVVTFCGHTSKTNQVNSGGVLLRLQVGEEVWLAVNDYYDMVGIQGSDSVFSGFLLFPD

B1
Kd [1]: 0.0737 nM

B2
Kd [1]: 2940 nM

B3
Kd (monomeric CRP (mCRP)): 4.7 µM

B4
Kd [1]: 890000 nM

B5
Kd (monomeric CRP (mCRP)): 3500 µM
